Earlier results as cited in paper PMC5057102.
pKd: −log10 of the molar value.

Target: Amyloid beta oligomers (1-40/1-42, form not specified) (UniProt P05067)
Experiment: not stated (cited)
Conditions: 5'-HS (thiol); 0.1 M phosphate buffer (Na2HPO4/NaH2PO4) pH 7.4; incubations at 37 C (Abeta 60 min, aptamer-Au-Th 3 h); 1% BSA block

Sequence of Amyloid beta oligomers (1-40/1-42, form not specified) (P05067 672-711): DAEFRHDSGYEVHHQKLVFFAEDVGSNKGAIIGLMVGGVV

For “GCCTGTGTTGGGGCGGGTGCG [Abeta oligomer aptamer (thiolated, on AuNP with thionine)]”, the pKd is given as 7.60.
